This assay deals with genome-edited CXCR4 fused to Nluc (human (endogenous in HEK293FT)) (UniProt P61073).
UniProt P61073, sequence (P61073 whole entry, the tested form may be a part): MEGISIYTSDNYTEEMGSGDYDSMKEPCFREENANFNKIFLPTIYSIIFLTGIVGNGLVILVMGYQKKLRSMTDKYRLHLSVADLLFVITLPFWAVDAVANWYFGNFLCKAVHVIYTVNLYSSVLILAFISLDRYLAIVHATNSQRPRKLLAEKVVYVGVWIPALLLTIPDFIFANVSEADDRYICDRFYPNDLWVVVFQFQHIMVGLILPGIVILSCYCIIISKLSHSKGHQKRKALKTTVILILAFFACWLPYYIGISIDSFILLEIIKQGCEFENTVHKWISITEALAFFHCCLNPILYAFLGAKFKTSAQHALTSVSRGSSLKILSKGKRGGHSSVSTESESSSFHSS

Turning to “CXCL12 (from UniProt P48061 22-93) (ligand)”, the inhibition of forskolin (5 µM)-mediated cAMP accumulation (HTRF) in HEK293FT cells expressing genome-edited CXCR4/Nluc was 8.6 pEC50.
